Ends that are not written are not given here. Me3 = trimethyl (on lysine, trimethyl-lysine)
What was measured:
Assay in all cases: ITC; chromodomain at 100 µM, H3K9me3 peptide at approximately 1 mM; 20 mM Tris, pH 8.0, 25 mM NaCl, 2 mM β-mercaptoethanol; 20°C; MicroCal iTC200, sixteen 2.5 µl injections
Details in all cases: both partners purified
[1] = target: T1, Rhino chromodomain G31A (Rhino residues 20-90) (D. melanogaster, UniProt Q7JXA8 20-90, G31A)
T1 construct: Rhino (HP1d), D. melanogaster, chromodomain construct spanning residues 20-90, with G31A; also called G31A mutant; source: E. coli BL21-CodonPlus (DE3)-RIPL, purified (Ni-NTA, Ulp1 cleavage, ion exchange, Superdex75); not shown: His6, N-terminal, cleaved; SUMO, N-terminal, cleaved
T1 sequence (looked up): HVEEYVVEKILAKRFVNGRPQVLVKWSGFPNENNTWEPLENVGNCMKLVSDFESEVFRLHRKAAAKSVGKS

[2] = target: T2, Rhino chromodomain, wildtype construct (Rhino residues 20-90) (D. melanogaster, UniProt Q7JXA8 20-90)
T2 construct: Rhino (HP1d), D. melanogaster, chromodomain construct spanning residues 20-90; Expressed as His6-SUMO-RhinoCD in pET-28; the tag was removed with Ulp1 protease; also called RhinoCD; wildtype domain; source: E. coli BL21-CodonPlus (DE3)-RIPL, purified (Ni-NTA, Ulp1 cleavage, ion exchange, Superdex75); not shown: His6, N-terminal, cleaved; SUMO, N-terminal, cleaved
T2 sequence (looked up): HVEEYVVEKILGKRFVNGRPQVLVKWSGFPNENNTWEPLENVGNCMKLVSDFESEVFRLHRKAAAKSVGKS

[3] = target: T3, Rhino chromodomain G31D (Rhino residues 20-90) (D. melanogaster, UniProt Q7JXA8 20-90, G31D)
T3 construct: Rhino (HP1d), D. melanogaster, chromodomain construct spanning residues 20-90, with G31D; also called Rhino^G31D chromodomain; source: E. coli BL21-CodonPlus (DE3)-RIPL, purified (Ni-NTA, Ulp1 cleavage, ion exchange, Superdex75); not shown: His6, N-terminal, cleaved; SUMO, N-terminal, cleaved
T3 sequence (looked up): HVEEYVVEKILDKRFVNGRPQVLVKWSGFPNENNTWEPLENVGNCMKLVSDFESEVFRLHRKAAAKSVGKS

Kd [1]: 43.5 ± 8.6 µM | Kd [2]: 30.9 ± 3 µM | Kd [3]: 31.1 ± 3.2 µM
B1: H3K9me3 peptide (KQTAR-K[me3]-STGGK) (peptide)
peptide: KQTARK(Me3)STGGK
notes: histone H3 N-terminal tail, K4 to K14 with K9 trimethylated; also called H3K9me3-modified histone tail peptide; synthetic H3K9me3 peptides; source: synthetic peptide; bought: AnaSpec, Inc

Source: PMC11245307, “Evolutionary adaptation of an HP1-protein chromodomain integrates chromatin and DNA sequence signals” (eLife, 2024)
